Test results as given in US20180291335A1, “MODIFIED POLYNUCLEOTIDES FOR ALTERING CELL PHENOTYPE” (ModernaTX, Inc., priority 2012, published 2018).

Legend:
HeLa cells [1] = experiment: Luciferase in HeLa cells using a combination of modifications; assay type: cell-based, human; conditions: 83 ng luciferase modified RNA, 18 to 22 hours
Description: To evaluate using of 2′fluoro-modified mRNA in combination with other modification a series of mRNA were transcribed using either wild-type T7 polymerase (non-fluoro-containing compounds) or using mutant T7 polymerases (fluyoro-containing compounds) as described in Example 86. All modified mRNA were tested by in vitro transfection in HeLa cells.
The day before transfection, 20,000 HeLa cells (ATCC no. CCL-2; Manassas, Va.) were harvested by treatment with Trypsin-EDTA solution (LifeTechnologies, Grand Island, N.Y.) and seeded in a total volume of 100 ul EMEM medium (supplemented with 10% FCS and 1× Glutamax) per well in a 96-well cell culture plate (Corning, Manassas, Va.). The cells were grown at […] in 5% CO2 atmosphere overnight. […] Lipofectamine 2000 (LifeTechnologies, Grand Island, N.Y.) was used as transfection reagent and 0.2 ul were diluted in 10 ul final volume of OPTI-MEM. After 5 minutes of incubation at room temperature, both solutions were combined and incubated an additional 15 minute at room temperature. Then the 20 ul combined solution was added to the 100 ul cell culture medium containing the HeLa cells and incubated at room temperature.
After 18 to 22 hours of incubation cells expressing luciferase were lysed with 100 ul of Passive Lysis Buffer (Promega, Madison, Wis.) according to manufacturer instructions. Aliquots of the lysates were transferred to white opaque polystyrene 96-well plates (Corning, Manassas, Va.) and combined with 100 ul complete luciferase assay solution (Promega, Madison, Wis.). The lysate volumes were adjusted or diluted until no more than 2 mio relative light units (RLU) per well were detected for the strongest signal producing samples and the RLUs for each chemistry tested are shown in Table 26. The plate reader was a BioTek Synergy H1 (BioTek, Winooski, Vt.). The background signal of the plates without reagent was about 200 relative light units per well.

interferon-alpha (IFN-α) = experiment: In vitro screening in PBMC: interferon-alpha induction by ELISA; assay type: cell-based, human
Text: (§1) The supernatant was harvested and stored frozen until analyzed by ELISA to determine the G-CSF protein expression, and the induction of the cytokines interferon-alpha (IFN-α) and tumor necrosis factor alpha (TNF-α).

[2] = tested on: peripheral blood mononuclear cells (PBMC); experiment: In vitro screening in PBMC: G-CSF protein expression by ELISA; assay type: cell-based, human
Text: as §1

HeLa cells [3] = experiment: G-CSF modified mRNA transfected in HeLa cells, G-CSF ELISA; assay type: cell-based, human; conditions: HeLa cells, ELISA
Description: (§2) To assess the activity of all our different chemical modifications in the context of a second open reading frame, we replicated experiments previously conducted using luciferase mRNA, with human G-CSF mRNA. […] The mutant T7 polymerase was obtained commercially (Durascribe® T7 Transcription kit (Cat. No. DS010925) (Epicentre®, Madison, Wis.).
(§3) The modified RNA in Tables 27 and 28 were transfected in vitro in HeLa cells or added to rabbit reticulysates (250 ng of modified mRNA) as indicated. […] In Table 27, “NT” means not tested.

[4] = tested on: tumor necrosis factor alpha (TNF-α); experiment: In vitro screening in PBMC: tumor necrosis factor alpha induction by ELISA; assay type: cell-based, human
Text: as §1

rabbit reticulysates = experiment: G-CSF modified mRNA in rabbit reticulysates, G-CSF ELISA; assay type: biochemical; conditions: 250 ng of modified mRNA, listed as 5-methylcytosine/pseudouridine
Description: as §2, §3

[5] = PBMC Donor 1, 500 ng G-CSF mRNA
[6] = PBMC Donor 1, 500 ng G-CSF mRNA, listed as 5-methylcytosine and pseudouridine (2nd set)
[7] = PBMC Donor 1, 500 ng G-CSF mRNA, listed as 5-methylcytosine and pseudouridine (3rd set)
[8] = PBMC Donor 1, 500 ng G-CSF mRNA, listed as 5-methylcytosine and pseudouridine (4th set)
[9] = PBMC Donor 2, 500 ng G-CSF mRNA
[10] = PBMC Donor 2, 500 ng G-CSF mRNA, listed as 5-methylcytosine and pseudouridine (2nd set)
[11] = PBMC Donor 2, 500 ng G-CSF mRNA, listed as 5-methylcytosine and pseudouridine (3rd set)
[12] = PBMC Donor 2, 500 ng G-CSF mRNA, listed as 5-methylcytosine and pseudouridine (4th set)
[13] = PBMC Donor 3, 500 ng G-CSF mRNA
[14] = PBMC Donor 3, 500 ng G-CSF mRNA, listed as 5-methylcytosine and pseudouridine (2nd set)
[15] = PBMC Donor 3, 500 ng G-CSF mRNA, listed as 5-methylcytosine and pseudouridine (3rd set)
[16] = PBMC Donor 3, 500 ng G-CSF mRNA, listed as 5-methylcytosine and pseudouridine (4th set)

## 2′Fluoroguanine/N1-methylpsuedouridine: Luciferase mRNA (SEQ ID NO: 409) modified with the named combination
HeLa cells [1]
  RLU: 247 RLU

## 2′Fluoroguanine/5-methylcytidine/N1 methylpsuedouridine: Luciferase mRNA (SEQ ID NO: 409) modified with the named combination
HeLa cells [1]
  RLU: 235 RLU

## 2′Fluoroguanine/pseudouridine: Luciferase mRNA (SEQ ID NO: 409) modified with the named combination
HeLa cells [1]
  RLU: 218 RLU

B1: 5-methylcytosine and pseudouridine (1^st set): G-CSF mRNA (SEQ ID NO: 408) fully modified with 5-methylcytosine and pseudouridine; repeated sets/tests (nucleic acid)
chain: GGGAAAUAAGAGAGAAAAGAAGAGUAAGAAGAAAUAUAAGAGCCACCAUGGCCGGUCCCGCGACCCAAAGCCCCAUGAAACUUAUGGCCCUGCAGUUGCUGCUUUGGCACUCGGCCCUCUGGACAGUCCAAGAAGCGACUCCUCUCGGACCUGCCUCAUCGUUGCCGCAGUCAUUCCUUUUGAAGUGUCUGGAGCAGGUGCGAAAGAUUCAGGGCGAUGGAGCCGCACUCCAAGAGAAGCUCUGCGCGACAUACAAACUUUGCCAUCCCGAGGAGCUCGUACUGCUCGGGCACAGCUUGGGGAUUCCCUGGGCUCCUCUCUCGUCCUGUCCGUCGCAGGCUUUGCAGUUGGCAGGGUGCCUUUCCCAGCUCCACUCCGGUUUGUUCUUGUAUCAGGGACUGCUGCAAGCCCUUGAGGGAAUCUCGCCAGAAUUGGGCCCGACGCUGGACACGUUGCAGCUCGACGUGGCGGAUUUCGCAACAACCAUCUGGCAGCAGAUGGAGGAACUGGGGAUGGCACCCGCGCUGCAGCCCACGCAGGGGGCAAUGCCGGCCUUUGCGUCCGCGUUUCAGCGCAGGGCGGGUGGAGUCCUCGUAGCGAGCCACCUUCAAUCAUUUUUGGAAGUCUCGUACCGGGUGCUGAGACAUCUUGCGCAGCCGUGAAGCGCUGCCUUCUGCGGGGCUUGCCUUCUGGCCAUGCCCUUCUUCUCUCCCUUGCACCUGUACCUCUUGGUCUUUGAAUAAAGCCUGAGUAGGAAG
modifications: 5-methylcytosine/pseudouridine modified; Description of Artificial Sequence: Synthetic Transcript Sequence
notes: repeated sets/tests
interferon-alpha (IFN-α); [5]
  IFN-α Expression: 88 pg/mL
interferon-alpha (IFN-α); [6]
  IFN-α Expression: 133 pg/mL
interferon-alpha (IFN-α); [7]
  IFN-α Expression: 88 pg/mL
interferon-alpha (IFN-α); [8]
  IFN-α Expression: 131 pg/mL
interferon-alpha (IFN-α); [9]
  IFN-α Expression: 94 pg/mL
interferon-alpha (IFN-α); [10]
  IFN-α Expression: 92 pg/mL
interferon-alpha (IFN-α); [11]
  IFN-α Expression: 75 pg/mL
interferon-alpha (IFN-α); [12]
  IFN-α Expression: 28 pg/mL
interferon-alpha (IFN-α); [13]
  IFN-α Expression: 148 pg/mL
interferon-alpha (IFN-α); [14]
  IFN-α Expression: 167 pg/mL
interferon-alpha (IFN-α); [15]
  IFN-α Expression: 150 pg/mL
interferon-alpha (IFN-α); [16]
  IFN-α Expression: 18 pg/mL
[2]; [5]
  G-CSF Protein Expression: 2,632 pg/ml
[2]; [6]
  G-CSF Protein Expression: 1,682 pg/ml
[2]; [7]
  G-CSF Protein Expression: 1,595 pg/ml
[2]; [8]
  G-CSF Protein Expression: 264 pg/mL
[2]; [9]
  G-CSF Protein Expression: 1,955 pg/ml
[2]; [10]
  G-CSF Protein Expression: 1,382 pg/ml
[2]; [11]
  G-CSF Protein Expression: 1,432 pg/ml
[2]; [12]
  G-CSF Protein Expression: 350 pg/mL
[2]; [13]
  G-CSF Protein Expression: 1,373 pg/ml
[2]; [14]
  G-CSF Protein Expression: 1,036 pg/ml
[2]; [15]
  G-CSF Protein Expression: 955 pg/mL
[2]; [16]
  G-CSF Protein Expression: 182 pg/mL
HeLa cells [3]; G-CSF mRNA, listed as 5-methylcytosine/pseudouridine, Test A
  G-CSF protein (pg/ml) HeLa cells: 609,545 pg/ml
HeLa cells [3]; G-CSF mRNA, listed as 5-methylcytosine/pseudouridine, Test B
  G-CSF protein (pg/ml) HeLa cells: 358,182 pg/ml
HeLa cells [3]; G-CSF mRNA, listed as 5-methylcytosine/pseudouridine, Test C
  G-CSF protein (pg/ml) HeLa cells: 882,500 pg/ml
HeLa cells [3]; G-CSF mRNA, listed as 5-methylcytosine/pseudouridine, Test D
  G-CSF protein (pg/ml) HeLa cells: 87,045 pg/ml
HeLa cells [3]; combination chemistries
  G-CSF protein (pg/ml) HeLa cells: 301,364 pg/ml
[4]; [5]
  TNF-α Expression: 64 pg/mL
[4]; [6]
  TNF-α Expression: 99 pg/mL
[4]; [7]
  TNF-α Expression: 84 pg/mL
[4]; [8]
  TNF-α Expression: 53 pg/mL
[4]; [9]
  TNF-α Expression: 89 pg/mL
[4]; [10]
  TNF-α Expression: 111 pg/mL
[4]; [11]
  TNF-α Expression: 89 pg/mL
[4]; [12]
  TNF-α Expression: 24 pg/mL
[4]; [13]
  TNF-α Expression: 121 pg/mL
[4]; [14]
  TNF-α Expression: 150 pg/mL
[4]; [15]
  TNF-α Expression: 130 pg/mL
[4]; [16]
  TNF-α Expression: 29 pg/mL
Rabbit reticulysates; Test A
  G-CSF protein (pg/ml) Rabbit reticulysates cells: 119,750 pg/ml
Rabbit reticulysates; Test B
  G-CSF protein (pg/ml) Rabbit reticulysates cells: 57,875 pg/ml
Rabbit reticulysates; Test C
  G-CSF protein (pg/ml) Rabbit reticulysates cells: 49,250 pg/ml
Rabbit reticulysates; Test D
  G-CSF protein (pg/ml) Rabbit reticulysates cells: 47,750 pg/ml
